These results are taken from US20220096654A1, “PYRROLOBENZODIAZEPINE-ANTIBODY CONJUGATES AND USES THEREOF” (ADC THERAPEUTICS SA, priority 2020, published 2022).

For data set [1], the system named is human CD34+ cells. The data set can be described thus: Ex vivo treatment of CD34+ cells with Mab or ADC prior to engraftment in NSG mice. The note with it: CD34+ cells treated at 1 nM and 0.1 nM for 4 hours before transplantation; week 8. The procedure: Adult female NSG mice were sublethally irradiated with 2.5 Gy on the day before transplantation. Cryopreserved purified CD34+ cells from mobilized peripheral blood from a normal donor were thawed and cultured in complete medium (RPMI 1640 plus 10% fetal calf serum) in presence of Mab, ADC or medium alone for 4 hours. Cells were washed in phosphate buffered saline (PBS) and 0.5×10^6 cells in PBS were injected intravenously into the tail vein of mice. Engraftment of transplanted human cells (hCD45+) in the bone marrow of mice was determined by flow cytometry at 8 weeks after transplantation.

For data set [2], the system named is luciferase expressing human CD45+ Jurkat cells. The data set can be described thus: Jurkat leukaemia model in NSG mice (bioluminescence, survival). The format is in vivo. The settings on record: 1 mg/kg; for mice remained leukaemia free: day 16. The procedure: Adult NSG mice were sublethally irradiated with 2 Gy on the day before injection of cells. 5×10^6 fire fly luciferase expressing Jurkat cells in PBS were injected intravenously into the tail vein of mice. On the following day PBS, MAbs or ADC were injected intravenously into the tail vein at a dose of 1 mg/kg. Mice were regularly monitored for signs of morbidity and weight loss for the duration of the experiment. For imaging, mice were injected intraperitoneally with 3 mg D-luciferin in PBS. Mice were initially anesthetized with 4% isoflurane and then maintained at 2% isoflurane. Ten minutes after injection of D-luciferin, mice were imaged inside a IVIS Lumina III (PerkinElmer). A sub-saturating image was captured using the auto-exposure setting in the Living Image software.

Data set [3] concerns human CD45+ cells. The data set can be described thus: Depletion of human CD45+ cells in humanised NSG mice. The format is in vivo. On the procedure:
Adult female NSG mice were sublethally irradiated with 2.5 Gy on the day before transplantation (day −57). Cryopreserved purified CD34+ cells from mobilized peripheral blood from a normal donor were thawed and 0.5×10^6 cells in PBS were injected intravenously into the tail vein of mice (day −56). Human engraftment (human CD45+ cells) in the blood of mice was assessed at day −14 and day −1. Mice were assigned to treatment cohorts so that the median human CD45+ engraftment in the blood between the cohorts was as similar as possible. Mice were injected with 0.3 mg/kg or 1 mg/kg Mab or ADC intravenously via the tail vein. Blood samples were taken after 7 days and analysed by flow cytometry. The bone marrow, blood and spleen of mice were analysed at two weeks post-treatment.

Data set [4] relates to human CD45+ cells. The data set can be described thus: Allogeneic stem cell transplant model in humanized NSG mice, comparison of payloads. The format is in vivo. The note with it: 1 mg/kg; for mean % hCD45+ engraftment in the bone marrow: 8 weeks after allogeneic GFP+ cells, PBS 14.12%. The procedure: Adult NSG mice (Charles River Laboratories) were sublethally irradiated with 2.5 Gy in a ^137Cs irradiator. On the following day, mice were injected with 0.5×10^6 freshly thawed cryopreserved human CD34+ cells from a health donor were injected via the tail vein in 150 μL PBS using a 29 gauge MicroFine Plus insulin syringe (BD). Engraftment of human cells in the blood was assessed periodically from 6 weeks after transplantation. At 10 weeks post-transplant, humanized NSG mice were assigned into cohorts with similar median human CD45+ cell engraftment in the blood, as determined by flow cytometry. Mice were injected with PBS or 1 mg/kg YTH24.5-B1. Sixteen 16 days after treatment, mice were transplanted with 0.5×10^6 GFP+CD34+ cells from another healthy donor. Irradiated NSG […] were also transplanted with the GFP+CD34+ from the allogeneic healthy donor as a control for engraftment of the GFP+CD34+ cells. 8 weeks after transplantation of GFP+ cells, mice were culled and blood, spleen and bone marrow taken for analysis by flow cytometry.
Experimental schedule is as previously described in example 16 but with the following modifications. Humanized NSG mice at 10 weeks post-transplant were injected with PBS or 1 mg/kg YTH24.5-B1, YTH54.12-B1, Isotype-B1, YTH24.5-B4 and Isotype-3376. Isotype-B2 and YTH24.5-B2 was given at a dose of 5 mg/kg. Transplantation of 0.5×10^6 GFP+CD34+ from an allogeneic human donor and analysis at 8 weeks post-transplant of GFP+ cells was carried out as previously described.

The test system of data set [5] is Nalm6 (CD45-). The data set can be described thus: Cell viability assay 5 days (PrestoBlue), Nalm6. It counts as cell-based, human. The note with it: rat IgG2b ADC, n=3. The procedure: OCIM1, Jurkat and Nalm6 cells were seeded at a final concentration of 1.275×10^4/mL and for 5 days in presence of rat IgG2b Mab or ADC or medium (in triplicate) in wells of flat bottom 96-well plates. 293T cells were seeded at 9.3×10^3 cells per 100 uL per well in flat bottom 96-well plates and allowed to adhere the plate for up to 24 hours. 293T cells were subsequently cultured with rat IgG2b Mabs or ADC or medium (in triplicate wells) as described above. PrestoBlue® Cell viability Reagent (Thermo Fisher Scientific) was added to each and incubated for up to 1.5 hours. Fluorescence intensity from each well was detected using a FLUOstar OPTIMA microplate reader (BMG Labtech). Data was plotted using Prism 8.0 and sigmoid dose-response non-linear regression was used to determine EC50 values. Data points are mean±s.d. for representative experiments.

Data set [6] is described as follows: Dosimetry in non-humanised NSG mice. The format is in vivo. The note with it: non-humanised NSG mice, monitored 2 weeks. The procedure:
For dosimetry in non-humanised NSG mice, adult NSG mice were injected intravenously via the tail vein with unconjugated Mab or ADC up to 5 mg/kg. Mice regularly monitored over a period of 2 weeks for any signs of morbidity. Mice were culled if rapid weight loss (>15%) occurred over a period of 2 days.

Data set [7] relates to Nalm6 (CD45-). The data set can be described thus: Cell viability assay 72 h (PrestoBlue), Nalm6. It counts as cell-based, human. The note with it: drug-linker B1. The procedure: OCIM1, Jurkat and Nalm6 cells were seeded at 0.5×10^5/mL were cultured for 72 hours in presence of Mab or ADC or medium (in triplicate wells) in wells of flat bottom 96-well plates. 293T cells were seeded at 9.3×10^3 cells per well in flat bottom 96-well plates and allowed to adhere the plate for up to 24 hours. 293T cells were subsequently cultured with Mab or ADC or medium (in triplicate wells) for 72 hours. PrestoBlue® Cell viability Reagent (Thermo Fisher Scientific) was added to each and incubated for up to 1.5 hours. Fluorescence intensity from each well was detected using a FLUOstar OPTIMA microplate reader (BMG Labtech). Data points are mean±s.d. for representative experiments.

The conditions of data set [8]: 1 mg/kg, NSG mice; for T %: serum ELISA. On the procedure: Adult (non-humanized) NSG mice were injected with 1 mg/kg ADC. Three mice were used for each ADC. Samples were taken from mice at between 3 h and 168 h after injection. Serum samples were analyzed by ELISA using recombinant human CD45 (Bio-Techne). Goat anti-rat IgG (H+L) (cross absorbed) and sulfoTAG Streptavidin was used to detect the total amounts of the YTH antibodies. Anti-drug antibody was used to detect the level of conjugated antibody.

B1: YTH54.12-B1: rat IgG2b anti-CD45 antibody YTH54.12 conjugated to cleavable PBD drug-linker B1 (drawing 43) (conjugate)
heavy: EVQLVESGGGLVQPGGSMKLSCAASGFTFSDYYMAWVRQAPKKGLEWVASMSFAGSSTYYGDSVKGRFTISRDNAKTTLYLQMNSLRSEDTATYYCARMYTTDYYLYWYFDFWGPGTMVTVSSAQTTAPSVYPLAPGCGDTTSSTVTLGCLVKGYFPEPVTVTWNSGALSSDVHTFPAVLQSGLYTLTSSVTSSTWPSQTVTCNVAHPASSTKVDKKVERRNGGIGHKCPTCPTCHKCPVPELLGGPSVFIFPPKPKDILLISQNAKVTCVVVDVSEEEPDVQFSWFVNNVEVHTAQTQPREEQYNSTFRVVSALPIQHQDWMSGKEFKCKVNNKALPSPIEKTISKPKGLVRKPQVYVMGPPTEQLTEQTVSLTCLTSGFLPNDIGVEWTSNGHIEKNYKNTEPVMDSDGSFFMYSKLNVERSRWDSRAPFVCSVVHEGLHNHHVEKSISRPPGK
light: DVQMTQSPSYLAASPGESVSISCKASKSISNYLAWYQQKPGEANKILIYSGSTLQSGTPSRFSGSGSGTDFSLTIRNLEPEDFAVYYCQQYDEKPLTFGSGTKLEIKRADAAPTVSIFPPSMEQLTSGGATVVCFVNNFYPRDISVKWKIDGSEQRDGVLDSVTDQDSKDSTYSMSSTLSLTKVEYERHNLYTCEVVHKTSSSPVVKSFNRNEC
The EC50 is the concentration that produces a half-maximal response. A higher EC50 goes with a less potent agent. As for B1, the “engraftment of human CD45+ cells in the bone marrow of NSG mice” value in data set [1] is “prevented engraftment”. For the same molecule, in data set [2], the “surviving mice at end of day 70” value is “had surviving mice” and the “mice remained leukaemia free” value is listed as 4 of 5. Also, in data set [3] (0.3 mg/kg i.v.), the “Mean % hCD45 levels in blood, 1 week post-treatment” value is on record as 2.99% and the “Mean % hCD45 levels in blood, 2 weeks Post-treatment” value stood at 1.31%. For the same molecule, in data set [3] (1 mg/kg i.v.), the “Mean % hCD45 levels in blood, 1 week post-treatment” value stood at 0.75% and the “Mean % hCD45 levels in blood, 2 weeks Post-treatment” value is recorded as 0.38%. In addition, the “Mean % hCD45 levels in blood, Pre-treatment” value in data set [3] (group later dosed 0.3 mg/kg) was determined as 5.37%. Also, the “Mean % hCD45 levels in blood, Pre-treatment” value in data set [3] (group later dosed 1 mg/kg) came to 6.14%. In addition, in data set [4], the “percentage GFP+ human CD34+ cells in the bone marrow (mean)” value worked out at 69.40% and the “mean % hCD45+ engraftment in the bone marrow” value amounted to 16.34%. The molecule further displayed an EC50 in data set [5] of 0.00964 nM. Besides, the “Comment (survival / culling)” value in data set [6] (0.5 mg/kg i.v.) is on record as “All alive at day 14”. The “Comment (survival / culling)” value in data set [6] (5 mg/kg i.v.) is listed as “All alive at day 14”. In data set [7], this molecule yielded an EC50 of 4.23 nM. In data set [8], the “AUC relative to YTH24.5-PBD” value is reported as ~1.5 times, the “time after injection by which below the lower limit of detection” value is on record as ~4 days and the T % turned out to be 1.53 days.

B2: YTH24.5-B1: rat IgG2b anti-CD45 antibody YTH24.5 conjugated to cleavable PBD drug-linker B1 (drawing 43) (conjugate)
heavy: QVNLLQSGAALVKPGASVKLSCKASSYTFTDYYIHWVKQSHGKTLEWIGYINPKSGFTNYNEKFRRKATLTVDKSTNTAYMDISRLTSEDSATYYCTRRTGVIPMDAWGQGASVTVSSAQTTAPSVYPLAPGCGDTTSSTVTLGCLVKGYFPEPVTVTWNSGALSSDVHTFPAVLQSGLYTLTSSVTSSTWPSQTVTCNVAHPASSTKVDKKVERRNGGIGHKCPTCPTCHKCPVPELLGGPSVFIFPPKPKDILLISQNAKVTCVVVDVSEEEPDVQFSWFVNNVEVHTAQTQPREEQYNSTFRVVSALPIQHQDWMSGKEFKCKVNNKALPSPIEKTISKPKGLVRKPQVYVMGPPTEQLTEQTVSLTCLTSGFLPNDIGVEWTSNGHIEKNYKNTEPVMDSDGSFFMYSKLNVERSRWDSRAPFVCSVVHEGLHNHHVEKSISRPPGK
light: DVVMTQTPVSLSVSLGGQVSISCRSSQSFVSSDGNTYLNWYLQKPGQSPQLLIYKVSNRLSGVPDRFSGSGSGTDFTLKISRVEHDDLGVYYCGQASKIPLTFGSGTKLEIKRADAAPTVSIFPPSMEQLTSGGATVVCFVNNFYPRDISVKWKIDGSEQRDGVLDSVTDQDSKDSTYSMSSTLSLTKVEYERHNLYTCEVVHKTSSSPVVKSFNRNEC
Consider B2, for which the “engraftment of human CD45+ cells in the bone marrow of NSG mice” value in data set [1] is recorded as “prevented engraftment”. Besides, in data set [2], the “surviving mice at end of day 70” value is recorded as “had surviving mice” and the “mice remained leukaemia free” value is on record as 5 of 5. In addition, in data set [3] (0.3 mg/kg i.v.), the “Mean % hCD45 levels in blood, 1 week post-treatment” value is 5.63% and the “Mean % hCD45 levels in blood, 2 weeks Post-treatment” value amounted to 1.75%. The “course of the levels of human CD45+ cells in blood” value in data set [3] (0.3 mg/kg, two week period) was “persistent loss”. Moreover, in data set [3] (1 mg/kg i.v.), the “Mean % hCD45 levels in blood, 1 week post-treatment” value is reported as 1.08% and the “Mean % hCD45 levels in blood, 2 weeks Post-treatment” value was determined as 0.64%. Further, the “Mean % hCD45 levels in blood, Pre-treatment” value in data set [3] (group later dosed 0.3 mg/kg) is reported as 8.89%. Besides, in data set [3] (group later dosed 1 mg/kg), the “Mean % hCD45 levels in blood, Pre-treatment” value was determined as 6.08%. In data set [4], the “percentage GFP+ human CD34+ cells in the bone marrow (mean)” value is listed as 59.13% and the “mean % hCD45+ engraftment in the bone marrow” value worked out at 16.45%. Also, the EC50 in data set [5] was 0.00934 nM. In addition, the “Comment (survival / culling)” value in data set [6] (0.5 mg/kg i.v.) was “All alive at day 14”. Further, in data set [6] (5 mg/kg i.v.), the “Comment (survival / culling)” value is recorded as “All alive at day 14”. This molecule showed an EC50 in data set [7] of 2.83 nM. Moreover, in data set [8], the “time after injection by which below the lower limit of detection” value was ~4 days and the T % is 1.49 days.
